According to patent US10047131B2, “Peptides and combination of peptides for use in immunotherapy against ovarian cancer and other cancers” (immatics biotechnologies GmbH, priority 2015, dated 2018):

Biological target: HLA-A*02:01 (Homo sapiens, UniProt P04439, D140Y/D185E/D98H/E176V/E277Q/G131W/G231S/I119V/I121R/I166T/I218V/L300P/L318F/N151K/N90K/P208A/P217A/Q86G/Q94H/R138H/R169H/T345S)
Test: MHC binding assay (UV-ligand exchange, ELISA of exchange yield)
Settings: binding to HLA-A*02:01, UV-ligand exchange
Description: Candidate peptides for T cell based therapies according to the present invention were further tested for their MHC binding capacity (affinity). The individual peptide-MHC complexes were produced by UV-ligand exchange, where a UV-sensitive peptide is cleaved upon UV-irradiation, and exchanged with the peptide of interest as analyzed. Only peptide candidates that can effectively bind and stabilize the peptide-receptive MHC molecules prevent dissociation of the MHC complexes. To determine the yield of the exchange reaction, an ELISA was performed based on the detection of the light chain (p2m) of stabilized MHC complexes. The assay was performed as generally described in Rodenko et al. (Rodenko et al., 2006).
96 well MAXISorp plates (NUNC) were coated over night with 2 μg/ml streptavidin in PBS at room temperature, washed 4× and blocked for 1 h at 37° C. in 2% BSA containing blocking buffer. […] Peptide-MHC monomers of the UV-exchange reaction were diluted 100 fold in blocking buffer. Samples were incubated for 1h at 37° C., washed four times, incubated with 2 μg/ml HRP conjugated anti-β2m for 1h at 37° C., washed again and detected with TMB solution that is stopped with […]. Absorption was measured at 450 nm. Candidate peptides that show a high exchange yield (preferably higher than 50%, most preferred higher than 75%) are generally preferred for a generation and production of antibodies or fragments thereof, and/or T cell receptors or fragments thereof, as they show sufficient avidity to the MHC molecules and prevent dissociation of the MHC complexes.

Substance | Peptide exchange (MHC class I binding score, peptide exchange yield)
120 (ALLGIPLTLV; listed as Homo sapiens) [compound 120] | “+++” (≥50 = +++)
121 (GVVDPRAISVL; listed as Homo sapiens) [compound 121] | “++” (≥20% = ++)
122 (FLLAEDDIYL; listed as Homo sapiens) [compound 122] | “+++” (≥50 = +++)
123 (NLWDLTDASVV; listed as Homo sapiens) [compound 123] | “+++” (≥50 = +++)
124 (ALYETELADA; listed as Homo sapiens) [compound 124] | “++” (≥20% = ++)
125 (VQIHQVAQV; listed as Homo sapiens) [compound 125] | “+++” (≥50 = +++)
126 (VLAYFLPEA; listed as Homo sapiens) [compound 126] | “++++” (≥75% = ++++)
127 (KIGDEPPKV; listed as Homo sapiens) [compound 127] | “++” (≥20% = ++)
128 (YLFDDPLSAV; listed as Homo sapiens) [compound 128] | “++” (≥20% = ++)
129 (GLLDGGVDILL; listed as Homo sapiens) [compound 129] | “+++” (≥50 = +++)
130 (FLWNGEDSALL; listed as Homo sapiens) [compound 130] | “+++” (≥50 = +++)
131 (FVPPVTVFPSL; listed as Homo sapiens) [compound 131] | “++” (≥20% = ++)
132 (LLVEQPPLAGV; listed as Homo sapiens) [compound 132] | “+++” (≥50 = +++)
133 (KVLSNIHTV; listed as Homo sapiens) [compound 133] | “++” (≥20% = ++)
134 (YLQELIFSV; listed as Homo sapiens) [compound 134] | “+++” (≥50 = +++)
135 (ALSEVDFQL; listed as Homo sapiens) [compound 135] | “+++” (≥50 = +++)
136 (YLADPSNLFVV; listed as Homo sapiens) [compound 136] | “+++” (≥50 = +++)
137 (TLVLTLPTV; listed as Homo sapiens) [compound 137] | “++++” (≥75% = ++++)
138 (YQYPRAILSV; listed as Homo sapiens) [compound 138] | “+++” (≥50 = +++)
139 (SVMEVNSGIYRV; listed as Homo sapiens) [compound 139] | “+++” (≥50 = +++)
140 (YMDAPKAAL; listed as Homo sapiens) [compound 140] | “++” (≥20% = ++)
141 (YLDFSNNRL; listed as Homo sapiens) [compound 141] | “++” (≥20% = ++)
142 (FLFATPVFI; listed as Homo sapiens) [compound 142] | “+++” (≥50 = +++)

Substance | Peptide exchange (MHC class I binding score, peptide exchange yield)
143 (LLLDITPEI; listed as Homo sapiens) [compound 143] | “++++” (≥75% = ++++)
144 (YIMEPSIFNTL; listed as Homo sapiens) [compound 144] | “+++” (≥50 = +++)
145 (FLATSGTLAGI; listed as Homo sapiens) [compound 145] | “++” (≥20% = ++)
146 (SLATAGDGLIEL; listed as Homo sapiens) [compound 146] | “++” (≥20% = ++)
147 (SLLEAVSFL; listed as Homo sapiens) [compound 147] | “+++” (≥50 = +++)
148 (ALNPEIVSV; listed as Homo sapiens) [compound 148] | “++” (≥20% = ++)
149 (NLLELFVQL; listed as Homo sapiens) [compound 149] | “+++” (≥50 = +++)
150 (RLWEEGEELEL; listed as Homo sapiens) [compound 150] | “+++” (≥50 = +++)
151 (KILQQLVTL; listed as Homo sapiens) [compound 151] | “+++” (≥50 = +++)
152 (ILFEDIFDV; listed as Homo sapiens) [compound 152] | “+++” (≥50 = +++)
153 (FLIANVLYL; listed as Homo sapiens) [compound 153] | “+” (≥10% = +)
154 (ALDDGTPAL; listed as Homo sapiens) [compound 154] | “++” (≥20% = ++)
155 (RVANLHFPSV; listed as Homo sapiens) [compound 155] | “+++” (≥50 = +++)
157 (SLNDEVPEV; listed as Homo sapiens) [compound 157] | “++” (≥20% = ++)
158 (KLFDVDEDGYI; listed as Homo sapiens) [compound 158] | “+++” (≥50 = +++)
159 (GLVGNPLPSV; listed as Homo sapiens) [compound 159] | “++++” (≥75% = ++++)
160 (FLFDEEIEQI; listed as Homo sapiens) [compound 160] | “+++” (≥50 = +++)
161 (ALLEGVNTV; listed as Homo sapiens) [compound 161] | “+++” (≥50 = +++)
162 (YQQAQVPSV; listed as Homo sapiens) [compound 162] | “+++” (≥50 = +++)
163 (ALDEMGDLLQL; listed as Homo sapiens) [compound 163] | “+++” (≥50 = +++)
164 (ALLPQPKNLTV; listed as Homo sapiens) [compound 164] | “+++” (≥50 = +++)
165 (SLLDEIRAV; listed as Homo sapiens) [compound 165] | “+++” (≥50 = +++)
166 (YLNHLEPPV; listed as Homo sapiens) [compound 166] | “+++” (≥50 = +++)
